Data on 2 substances can be found in patent US5952216.

Assay in all cases: ELISA on Sf9 extract, absorbance at 405 nm normalized to H16.D9
For orientation: An ELISA detects its analyte on a solid surface through an enzyme-linked reagent.

Assay [1] deals with HPV16 L1 virus-like particles (human papillomavirus type 16) (UniProt P03101).
The target of assay [2] is HPV16:D202H L1 (human papillomavirus type 16) (UniProt P03101).
In assay [3] the target is HPV11 L1 virus-like particles (human papillomavirus type 11) (UniProt P04012).
Assay [4] has as its target HPV16:D202E virus-like particles (human papillomavirus type 16) (UniProt P03101).

Turning to MAb H16.V5 (antibody), the normalized ELISA value (normalized with H16.D9) in assay [1] amounted to 1.08; in assay [2], 0.19; in assay [3] it was 0.06; in assay [4], 0.15.

As to MAb H16.U4 (antibody), the normalized ELISA value (normalized with H16.D9) in assay [1] amounted to 0.79; in assay [2], 0.21; in assay [3], 0.06; in assay [4], 0.59.
